# From the supplement of paper PMC10126150
# ± gives the standard deviation of the averaged measurements.
# Tested on: ATP
# Test: switch fluorescence ratio, 500 uM ATP over buffer (Cy3 cluster intensity, sum of 5 cycles each) (fold (ratio)); higher = stronger signal-on switching upon ATP binding; sequences stand for … in TCGTCGGCAGCGTCAGATGTGTATAAGAGACAGTTTTTTTTTTTTTTTTTTTTTTTTT…TC
# Settings: aptamer strand: ATP DNA aptamer (quencher-CACCTGGGGGAGTATTGCGGAGGAAGG + anchor), 100 nM annealed; ATP concentration: 500 uM
# Outline: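 Cy3-labelled switching-strand clusters on a modified Illumina MiSeq flow-cell were annealed to 100 nM quencher-labelled ATP aptamer, imaged in selection buffer, then imaged after 15 min with 500 uM ATP at 22 °C. Five buffer/ATP cycles ran, with NaOH stripping and re-annealing between them. The fluorescence ratio is summed target-cycle over summed buffer-cycle Cy3 intensity per cluster, averaged per switch-domain sequence. Clusters outside 100-1000 RFU were excluded.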
# 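Note: ATP exposure 15 min at 22 °C before imaging.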
row,Sequence,switch fluorescence ratio
1,TCGCAATGTT,3.58 ± 1
2,TATGTACGCA,1.11 ± 0.018
3,AAACTATGGA,0.961 ± 0.022
4,AATGTTCGGT,0.989 ± 0.011
5,CTCGTCCTTA,1.019 ± 0.0051
6,GTGGAAAATT,0.987 ± 0.018
7,AGTAGTGAGG,0.979 ± 0.017
8,GGGTTGGAAA,0.989 ± 0.03
9,AATGGGTGAA,0.97511 ± 0.00091
10,GAATATTGTA,0.988 ± 0.013
11,TTAGAGAGGC,0.961 ± 0.054
12,CGTTTTTAGG,1.02 ± 0.024
13,GAGAGAGTGG,0.976 ± 0.032
14,CAGTAGTGTC,0.985 ± 0.041
15,ATTGGTGGGG,0.982 ± 0.033
16,GAGGGGTTTT,1.01 ± 0.04
17,CATTAGAGGG,0.988 ± 0.031
18,GAAAAAAAGC,1.01 ± 0.053
19,GCTATTAGTT,1.04 ± 0.017
20,TGAATGGGTA,0.983 ± 0.019
21,TTGTTGGTTA,0.9925 ± 0.0028
22,CACATTTGGA,0.985 ± 0.051
23,CCGTTATAGT,1.795 ± 0.012
24,TGTGACTAAG,0.9791 ± 0.0015
25,GAATGGCTGC,1.04 ± 0.0048

row,Sequence,switch fluorescence ratio
1,TTAAAGGGGA,1.04 ± 0.049
2,TAGCGGGTTT,1.03 ± 0.023
3,GTGTGACTCG,1.03 ± 0.062
4,AAGGCCGCGG,0.997 ± 0.05
5,GGGGGTTAGG,1.01 ± 0.037
6,CGGGGAGCTG,1.02 ± 0.036
7,TAAAACCCGC,1.05 ± 0.032
8,TTTGTGTGGA,1.03 ± 0.0059
9,TGCGATGTAG,0.9889 ± 0.005
10,TTGACAAGAT,1.28 ± 0.39
11,GAATGGAGCC,0.995 ± 0.022
12,CCAGGGGTCC,2.93 ± 2.4
13,ATCTATCCAC,1.09 ± 0.037
14,GGGGTCCTGA,1.01 ± 0.062
15,CGTGCGAAGG,1.03 ± 0.049
16,TCCAGGTCGG,1.2 ± 0.025
17,CGATAAGCGG,1.02 ± 0.035
18,CCAGAAGGGT,0.974 ± 0.02
19,AGGAATTCCG,0.992 ± 0.054
20,TATGGTGGAG,0.981 ± 0.02
21,GAGGGTTGGG,1.06 ± 0.045
22,ATGGTTGTTC,1.07 ± 0.16
23,GGTTCTATGG,0.99441 ± 3.1e-05
24,ACGGTTGAGC,1 ± 0.021
25,GGTATAGGCT,0.996 ± 0.014

row,Sequence,switch fluorescence ratio
1,CAAGTTGATG,0.982 ± 0.057
2,CTGGTGGGGG,0.9702 ± 0.0027
3,CATGATGGGG,0.96 ± 0.027
4,GGGGGTTAGT,1.01 ± 0.014
5,ATGGTCCGAG,0.998 ± 0.018
6,TTTTTATAAG,0.994 ± 0.019
7,TTGTGAAAGA,1.01 ± 0.021
8,GTAGGGGTTG,1.01 ± 0.053
9,TGATGTAATG,1 ± 0.02
10,TTGTGATACT,1.07 ± 0.044
11,TGGTGTTGCT,0.9797 ± 0.0068
12,ATCAAGGATG,1.03 ± 0.038
13,CCCAAAGCGG,1.09 ± 0.032
14,TGCAAAAGAG,1.01 ± 0.062
15,TATAACGGTT,1.034 ± 0.0074
16,GGTTTCCTTT,0.992 ± 0.021
17,AGAAGGCTAG,1.02 ± 0.05
18,GGTATGGGAT,1.022 ± 0.0059
19,TACAGCAGTG,1.02 ± 0.023
20,CGCGCTTTCA,1.02 ± 0.027
21,AACGTACTGG,1.52 ± 0.095
22,TTTTGGGGCG,1.04 ± 0.055
23,TAGTAGGGTG,1.03 ± 0.036
24,TTGATGTTGG,0.992 ± 0.048
25,AGCAAAAAGG,0.997 ± 0.054

row,Sequence,switch fluorescence ratio
1,TCGTTACAGA,1.02 ± 0.045
2,GGTGGCTTGC,1.014 ± 0.0032
3,GGTTAATCGT,0.98228 ± 0.00062
4,TTACATAGTA,1.06 ± 0.071
5,TAAGAAGTCG,0.9751 ± 0.0023
6,TCGAGGGGGA,1.31 ± 0.63
7,GGTGCGGGTG,1.03 ± 0.051
8,CGGGGAAGCG,1.01 ± 0.021
9,TTAAGTTGCA,1.05 ± 0.028
10,TTCGGATGGC,1.01 ± 0.084
11,GTTGTTTGCG,0.953 ± 0.023
12,TTTTAGAGAG,0.997 ± 0.019
13,TAGCAATTAG,2.45 ± 0.031
14,CACCGTTTTC,1.1 ± 0.028
15,TAAGGGAACC,1.01 ± 0.044
16,GATGCTTCTG,1.02 ± 0.032
17,TGCGGGTAGG,1.03 ± 0.012
18,GGTTGACGGG,0.985 ± 0.055
19,ACTTGGACTG,1.03 ± 0.042
20,GATTCGGCTA,1.02 ± 0.021
21,CGGGGGGCCG,0.995 ± 0.01
22,AGGAGGTTTG,0.97 ± 0.015
23,GCACCAAGGA,1.07 ± 0.036
24,ATGTTCGGGC,1.04 ± 0.035
25,TGTCAGAGGG,1.01 ± 0.016

row,Sequence,switch fluorescence ratio
1,GAAAAAGTCA,1.01 ± 0.023
2,TGTTGTAAAC,1.05 ± 0.032
3,TTGGGTCATA,1.01 ± 0.039
4,CGGCTAACAA,1.02 ± 0.013
5,TGTTGGGTGG,0.9948 ± 0.00021
6,TTTCTAATGG,1.02 ± 0.026
7,TTGATTGCTT,0.9717 ± 0.0011
8,CGTGGCCGCG,0.959 ± 0.012
9,GGATTAAAGC,0.998 ± 0.022
10,GCCGCAGACA,1.39 ± 0.1
11,GCAGAGTCGT,0.999 ± 0.037
12,CGTGCAAAAC,1.82 ± 0.88
13,TTCTTATTTT,0.999 ± 0.014
14,TCAGGGGCAT,1.18 ± 0.3
15,TAGTGGTGGA,0.9979 ± 0.009
16,AATTGTTATT,0.9919 ± 0.0034
17,ATACCTCTTG,0.992 ± 0.022
18,AACCAGCACC,1.0991 ± 0.00048
19,AAGACACAGA,1.06 ± 0.035
20,TTAAGATGTT,0.993 ± 0.016
21,GACCGGATTC,1.06 ± 0.11
22,TGGTTACTTC,1.04 ± 0.028
23,GGGGGACGGC,0.985 ± 0.049
24,AGTCGGGCGC,0.983 ± 0.051
25,GGTGTAGGT,0.986 ± 0.022

row,Sequence,switch fluorescence ratio
1,ATCTTGGTTG,1 ± 0.026
2,CGGGATTTAA,1.03 ± 0.054
3,GCGAGGGTGG,1.02 ± 0.018
4,AGGTATGGTT,0.984 ± 0.024
5,AGCGGCTAAT,0.981 ± 0.011
6,TTCCCCCTTT,1.45 ± 0.58
7,TATCCAAGTT,0.999 ± 0.013
8,TTGGGTAGCT,0.996 ± 0.043
9,TAGCAACGCA,1.03 ± 0.015
10,TCCAAGGGGG,1.024 ± 0.0066
11,CTCAGTATCG,1.012 ± 0.002
12,GGGGGGGCCG,0.993 ± 0.048
13,TTCCGGTCTT,1.03 ± 0.066
14,GATAGGTGAG,1.01 ± 0.024
15,GGAAGTAAAA,1.03 ± 0.076
16,GGGGCCGTTA,1.012 ± 0.0042
17,CGAGCCGAGA,1.003 ± 0.0095
18,ATAAACGGCG,1.01 ± 0.024
19,TGGAAGGGTT,0.994 ± 0.028
20,TTTACATTGT,1.01 ± 0.03
21,ACAGCATGGA,1.04 ± 0.048
22,GAGGGGTGGT,0.987 ± 0.029
23,TTTACAGGGT,1.03 ± 0.036
24,TTGGGGTCCC,1 ± 0.037
25,CATCATGTTT,0.984 ± 0.015

row,Sequence,switch fluorescence ratio
1,GGGCCGGGTT,1.01 ± 0.021
2,TTGTCGTCGC,0.989 ± 0.024
3,TGACGCGGGG,1.054 ± 0.0086
4,CGGGTCGTGC,1.03 ± 0.013
5,AAGGTGGGGT,1.03 ± 0.026
6,TTTTAGAGGA,0.9736 ± 0.0013
7,AAGGGGCGTG,0.997 ± 0.03
8,GTAGCAGACG,1.16 ± 0.013
9,TAGTTGGTTT,0.999 ± 0.037
10,GGTTTCGGCG,0.966 ± 0.04
11,TCATTAATAT,1.16 ± 0.22
12,CCATGGGTTC,1.0016 ± 0.00068
13,GGCCGAATGG,1.03 ± 0.043
14,CGGCCATTTG,0.993 ± 0.059
15,GTAAGAAGTG,0.941 ± 0.033
16,CGGCTTAAGT,1.01 ± 0.035
17,TTGCTGGGGT,1.01 ± 0.044
18,CTAGGGGACA,1.04 ± 0.029
19,ATGTTGGAAT,1.04 ± 0.028
20,CAGTTAGGGG,1.02 ± 0.013
21,GGGGACAAAT,1.05 ± 0.0011
22,TTGCGCGGGA,1.02 ± 0.072
23,CTGATTTTCC,1.01 ± 0.061
24,GTATGGATTC,0.987 ± 0.057
25,AGTCTTGGTG,0.973 ± 0.018

row,Sequence,switch fluorescence ratio
1,TTTGTACTGG,1.01 ± 0.041
2,CCGTGCACAT,2.679 ± 0.0035
3,TATTTAAACG,1 ± 0.011
4,ATATTGGTTA,0.9923 ± 0.0052
5,GGTGAGGGTG,1.1 ± 0.013
6,GCTTTTGGTG,1.02 ± 0.032
7,TCCTTGGAGG,0.989 ± 0.028
8,TGAAGTGTTT,1.01 ± 0.028
9,TTAATCGTTA,1.01 ± 0.011
10,GTTTTAGCTT,1 ± 0.011
11,GGGGAATTGG,0.994 ± 0.024
12,AGGTGAGGGT,1.022 ± 0.0047
13,GTTCAGGGGA,1.27 ± 0.41
14,AAATGCGGTA,1 ± 0.056
15,ACTGTTCCGA,1.05 ± 0.054
16,GAATGGCATG,0.991 ± 0.034
17,GGGGACTTTG,1.09 ± 0.073
18,TCCGTTTTTT,1.04 ± 0.063
19,TACTGGGGTT,0.981 ± 0.031
20,CACCAGTCAA,1.56 ± 0.33
21,AATATTTGAA,1.02 ± 0.021
22,AGAAGGTGCC,1.05 ± 0.049
23,ATTATGAATT,1.01 ± 0.021
24,GAGCGCTAGG,0.9952 ± 0.0043
25,TTATGACATT,1.01 ± 0.044
